Experiment: Pore exclusion gradient gel electrophoresis of peptide/lipid complexes
Type: physicochemical
Conditions: range over complexes, ratio not stated
Protocol: Pore exclusion electrophoresis was performed on the resulting peptide/lipid complexes (FIG. 7), on 4-25% olyacrylamide gels using non-denaturing conditions for 24 to 36 hours. Gels were fixed and stained in the presence of 4% formaldehyde. DMPC is mixed with a trace of fluorescent marker (NBD). Different ratios of protein:lipid (1:1, 1:2.5, 1:5, 1:7.5) were incubated for 24-36 hours.

For “Apo A-I: apolipoprotein A-I, major HDL apoprotein component, isolated from human serum”, which Stokes diameter is on record?
The Stokes diameter was 80-200 Å.
